{
  "source": "IntAct's records for PubMed 9278513",
  "parents": {"B1": {"name": "Phytochrome-like protein Cph1 (Synechocystis sp. (strain PCC 6803 / Kazusa)), Q55168 (parent)", "chain": "MATTVQLSDQSLRQLETLAIHTAHLIQPHGLVVVLQEPDLTISQISANCTGILGRSPEDLLGRTLGEVFDSFQIDPIQSRLTAGQISSLNPSKLWARVMGDDFVIFDGVFHRNSDGLLVCELEPAYTSDNLPFLGFYHMANAALNRLRQQANLRDFYDVIVEEVRRMTGFDRVMLYRFDENNHGDVIAEDKRDDMEPYLGLHYPESDIPQPARRLFIHNPIRVIPDVYGVAVPLTPAVNPSTNRAVDLTESILRSAYHCHLTYLKNMGVGASLTISLIKDGHLWGLIACHHQTPKVIPFELRKACEFFGRVVFSNISAQEDTETFDYRVQLAEHEAVLLDKMTTAADFVEGLTNHPDRLLGLTGSQGAAICFGEKLILVGETPDEKAVQYLLQWLENREVQDVFFTSSLSQIYPDAVNFKSVASGLLAIPIARHNFLLWFRPEVLQTVNWGGDPNHAYEATQEDGKIELHPRQSFDLWKEIVRLQSLPWQSVEIQSALALKKAIVNLILRQAEELAQLARNLERSNADLKKFAYIASHDLQEPLNQVSNYVQLLEMRYSEALDEDAKDFIDFAVTGVSLMQTLIDDILTYAKVDTQYAQLTFTDVQEVVDKALANLKQRIEESGAEIEVGSMPAVMADQIQLMQVFQNLIANGIKFAGDKSPKIKIWGDRQEDAWVFAVQDNGIGIDPQFFERIFVIFQRLHTRDEYKGTGMGLAICKKIIEGHQGQIWLESNPGEGSTFYFSIPIGN", "partner": "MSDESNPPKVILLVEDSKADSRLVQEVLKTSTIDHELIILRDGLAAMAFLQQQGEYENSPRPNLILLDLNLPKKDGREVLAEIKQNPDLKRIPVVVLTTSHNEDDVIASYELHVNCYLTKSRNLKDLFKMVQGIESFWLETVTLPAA"}, "B2": {"name": "Response regulator Rcp1 (Synechocystis sp. (strain PCC 6803 / Kazusa)), Q55169 (parent)", "chain": "B1 partner"}},
  "data": [
    {"variants_of": "B1", "conditions": "with rcp1_syny3 rcp1, Q55169", "values": [
      {"variant": "H538K", "effect of a mutation on the interaction": "disrupting interaction"}
    ]},
    {"variants_of": "B2", "conditions": "with phy1_syny3 cph1, Q55168", "values": [
      {"variant": "MSDESNPPKVILLVEDSKADSRLVQEVLKTSTIDHELIILRDGLAAMAFLQQQGEYENSPRPNLILLALNLPKKDGREVLAEIKQNPDLKRIPVVVLTTSHNEDDVIASYELHVNCYLTKSRNLKDLFKMVQGIESFWLETVTLPAA", "note": "[D68A]", "effect of a mutation on the interaction": "disrupting interaction"}
    ]}
  ]
}
